Laboratory results from the supplement of paper PMC10567573.
± gives the standard deviation.

Assay: protein stability index of a GFP-peptide fusion (GPS, HEK-293T) (PSI 1-6); higher = more stable
Conditions: c terminus: a fixed tail appended
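Further: 24-mer peptide tiles fused after GFP, lentivirally expressed, FACS-sorted into six equal bins by GFP/DsRed ratio, decoded by Illumina sequencing, PSI is the read-weighted mean bin number.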

Row | Sequence | protein stability index (treatment: DMSO) | protein stability index (treatment: MLN4924 1 uM, 8 h)
1 | VQSLCAKHGIEYQSKPLLSAFADI [FADS1] | 2.31 ± 0.3 | 2.32 ± 0.26
2 | AQLQDFVRAKGSQSGRHLQTHSNT [STX5] | 4.13 ± 0.08 | 4.24 ± 0.15
3 | DLAGLGSETPKSQVGTLLFRSRSR [CDC25B] | 3.83 ± 0.35 | 4.11 ± 0.35
4 | LNSMPKRLCLVCGDIASGYHYGVA [ESRRG] | 2.48 ± 0.22 | 2.23 ± 0.39
5 | KYRNPSLKLMVNVCGHTLCESCVD [MNAT1] | 2.53 ± 0.34 | 2.83 ± 0.31
6 | KLENARLSSEMNTSTVNSAREELM [LMNB1] | 4.59 ± 0.19 | 4.71 ± 0.11
7 | LAVYHRLWDRAYVRLKPALQRLDF [RETREG3] | 2.31 ± 0.38 | 2.56 ± 0.4
8 | QQPPPPRRAGAACTLRQKLIFSPC [WEE1] | 2.79 ± 0.46 | 2.94 ± 0.099
9 | SSGRSCRNERSIQEKLQVLMAEGL [SMG5] | 2.64 ± 0.39 | 2.88 ± 0.12
10 | DSIKDEDRTSLATFHEGKHNISHM [WDFY1] | 4.66 ± 0.23 | 4.59 ± 0.28
11 | PDGVCLSGGRGPQGDKAIREQGPR [PBXIP1] | 5.21 ± 0.14 | 4.88 ± 0.35
12 | AVYLMTFLIVTVAWAAHTRLFQVV [TMEM175] | 3.17 ± 0.097 | 3.18 ± 0.2
13 | HSQELTNEKEKALQAQVQYQQQHE [SASS6] | 5.45 ± 0.26 | 5.51 ± 0.14
14 | GCKGFFRRSVRKNHMYSCRFSRQC [HNF4A] | 2.15 ± 0.18 | 2.27 ± 0.36
15 | RAVQGPEETVTQDCLQLIADSETP [TNFSF13B] | 5.38 ± 0.2 | 5.38 ± 0.15
16 | EVENQFILRLPLEHACTVRNLARS [TAF7L] | 2.66 ± 0.12 | 2.51 ± 0.24
17 | TWRDPQDEVPGSQGSQASQAPPVP [NR2F2] | 5.18 ± 0.19 | 5.16 ± 0.23
18 | DEALAIAALELLPRELFPPLFMAA [PRAME] | 2.78 ± 0.21 | 2.61 ± 0.55
19 | SNFPRQYFALRKILKQLIADVTLD [TRIM39] | 2.54 ± 0.58 | 2.19 ± 0.53
20 | RGDERILSILRHQNLLKELQDLAL [CHGA] | 2.36 ± 0.4 | 2.41 ± 0.29
21 | KVTGVEYHNAGTQTVPKRIPERLS [IQUB] | 4.22 ± 0.22 | 4.23 ± 0.32
22 | SFPRNNISYLVLSMISMGLFSIAP [JAGN1] | 3.32 ± 0.2 | 3.42 ± 0.42
23 | FCASTRLPPTPLLLFPEEEATNGR [AUP1] | 3.03 ± 0.59 | 3.79 ± 0.31

Row | Sequence | protein stability index (treatment: DMSO) | protein stability index (treatment: MLN4924 1 uM, 8 h)
24 | HAGQGGLFYSAEVEMLCDQAWGSM [CCDC3] | 2.53 ± 0.77 | 2.47 ± 0.39
25 | LDQLDESLRDKVLQLQKGSDTEAQ [INTS3] | 5.46 ± 0.12 | 5.31 ± 0.21
26 | AEISQPPALSQLVNLYLGRSHFLW [TCF25] | 2.67 ± 0.23 | 2.73 ± 0.44
27 | VAFLEQRASALLASCSKNCTNSPA [FBXO34] | 2.9 ± 0.25 | 2.76 ± 0.28
28 | GVTEEQEGFADGFVKALDDLHKMN [JUNB] | 4.69 ± 0.17 | 4.47 ± 0.32
29 | PAVEACENRRKVLYQRAPRNIHRH [TCF25] | 3.88 ± 0.23 | 3.81 ± 0.15
30 | PQESAILQLFHQDGTFSPVTLALF [CLCN6] | 2.45 ± 0.46 | 2.42 ± 0.32
31 | GSSETETEPPVALAPGPAPTRCLP [ESRRA] | 5.23 ± 0.28 | 5.16 ± 0.11
32 | DGQYMGVAFRGLKGKKLYPVVSAV [SPSB1] | 2.36 ± 0.55 | 2.12 ± 0.48
33 | ICEATQIIDYLEQTFLDERTPRLM [GDAP1] | 2.39 ± 0.24 | 2.45 ± 0.18
34 | LQQIADFMTTNVPNVYPAAPQGGM [ADD1] | 3.3 ± 0.2 | 3.29 ± 0.17
35 | NKQKCVERNEVRNVFKELQIMQGL [STK32A] | 2.94 ± 0.4 | 2.93 ± 0.24
36 | AEKNCMTFFEVSPLCNFNVIESFT [RAB40C] | 2.3 ± 0.64 | 2.02 ± 0.24
37 | HVRQGVFSSLNHIVEKRVLAHLAP [INTS3] | 2.32 ± 0.21 | 2.41 ± 0.12
38 | TEPEQRELKTKLTKLEAEIVTLRH [TPD52L3] | 4.23 ± 0.15 | 4.35 ± 0.26
39 | FLSENATVAAETRAVIAWMEKIPF [CPXM2] | 2.04 ± 0.12 | 2.28 ± 0.5
40 | RRSVRKNHMYSCRFSRQCVVDKDK [HNF4A] | 3.02 ± 0.24 | 3.2 ± 0.24
41 | KVKVPQKTAGKENHFDMHRVGKWH [ZNF75A] | 2.87 ± 0.45 | 3.43 ± 0.51
42 | WLLNNLMTHQNVELFKELSINVMK [GMCL1] | 2.28 ± 0.54 | 2.08 ± 0.3
43 | RLVPGGQRPADVPEPGRAGYPAPR [HAGHL] | 4.59 ± 0.13 | 4.68 ± 0.1
44 | GHHERSIMTDLYYLSQTDGAGDWR [FUT8] | 3.2 ± 0.35 | 3.12 ± 0.24
45 | QWLRPHVSTKEQILDLLVLEQFLS [ZSCAN9] | 2.07 ± 0.5 | 2.22 ± 0.44
46 | LRQKGNRNTHKDLLRFAQVFSQMI [FEM1B] | 2.38 ± 0.56 | 2.26 ± 0.32

Row | Sequence | protein stability index (treatment: DMSO) | protein stability index (treatment: MLN4924 1 uM, 8 h)
47 | GSLCSLWFGASVLSLLELLELLLD [SCNN1D] | 2.17 ± 0.36 | 1.91 ± 0.27
48 | IAIVSVMVILISIVIFCLETLPEL [KCNA1] | 2.39 ± 0.25 | 2.44 ± 0.16
49 | LLDEIVPVYRRDCHEEVYAGSHQY [ACBD3] | 3.03 ± 0.13 | 3.13 ± 0.26
50 | ASGKLRKKKKKQKNKKSSTGEASE [TCF25] | 4.9 ± 0.23 | –
51 | MASGPGSQEREGLLIVKLEEDCAW [ZNF263] | 2.44 ± 0.36 | 2.28 ± 0.47
52 | VASGSTPAPALCCAPYDSRLLGSA [IRX6] | 2.64 ± 0.21 | 2.99 ± 0.13
53 | IGCVFAELLTGQPLWPGKSDVDQL [CDKL4] | 2.09 ± 0.32 | 2.15 ± 0.57
54 | RGAQGVILVYDIANRWSFEGMDRW [RAB40A] | 2.57 ± 0.37 | 2.28 ± 0.28
55 | FDSDWYTSRNLIGGADIIVIKYNV [RHOBTB3] | 2.73 ± 0.52 | 3.12 ± 0.4
56 | IPQAGGWGPWGPWGDCSRTCGGGV [ADAMTS4] | 2.68 ± 0.15 | 2.47 ± 0.22
57 | RSLFSSVPSKPPMSLEPQNGTYAG [ANKRD40] | 3.51 ± 0.19 | 4.29 ± 0.41
58 | SQAPDGRRKSEAGSGAASSSGEDK [CDC25B] | 5.65 ± 0.18 | 5.58 ± 0.35
59 | VASEMRFVQDLVRALEQEKLQGVE [DAPK3] | 4.42 ± 0.44 | 4.73 ± 0.37
60 | GHGMTPLKVAAESCKADVVELLLS [FEM1B] | 2.29 ± 0.21 | 2.47 ± 0.34
61 | LSPSRGVAQCLRDLVAMQWADAAG [ZSWIM9] | 2.7 ± 0.17 | 2.77 ± 0.28
62 | MLEASEWATIEGLVELLQPFKQVA [ZBED1] | 2.23 ± 0.76 | 2.27 ± 0.23
63 | RTSCSSRPCVPPSCHGYTLPGACN [KRT33B] | 2.67 ± 0.3 | 2.56 ± 0.17
64 | LWTTSRVLKVLSVCSSNKPAIVEA [CTNNB1] | 2.21 ± 0.3 | 2.08 ± 0.28
65 | GFWEEERPFWEEEKTFWKEEKSFW [CCDC70] | 2.85 ± 0.35 | 3.274 ± 0.027
66 | QERERVLTHFSRRYCQCNPDDSTS [PSD2] | 3.88 ± 0.14 | 3.93 ± 0.14
67 | HTGEKPYTCHECGDSFSHSSNRIR [ZNF263] | 2.67 ± 0.2 | 3.4 ± 0.48
68 | KRLYDKAAKMYHQLKKCETRKLSP [SMG5] | 2.28 ± 0.18 | 2.38 ± 0.39
69 | RRTRGPVERAAAAAAAAAGGDAGH [C6orf223] | 4.91 ± 0.31 | 5.07 ± 0.17

Row | Sequence | protein stability index (treatment: DMSO) | protein stability index (treatment: MLN4924 1 uM, 8 h)
70 | RYFIADLPHLQDSFVDKLLDLMPR [INTS4] | 2.16 ± 0.29 | 2.27 ± 0.29
71 | IFSLATEWVISTGHDKCVSWMCTR [WDFY1] | 2.94 ± 0.47 | 2.85 ± 0.66
72 | HLGCAVYQDMIYAVGGRDDTTELS [KLHL20] | 3.39 ± 0.14 | 3.38 ± 0.17
73 | PLLCPGCQGQPQGKAVVSHSKGHK [ELOA2] | 4.12 ± 0.43 | 4.53 ± 0.42
74 | LYFQWYIFYFVIQRKKWVDLAWMI [FADS1] | 2.25 ± 0.7 | 3.09 ± 0.93
75 | ELFKELSINVMKQLIGSSNLFVMQ [GMCL1] | – | 3.95 ± 0.43
76 | LLEATCPFGENAEFPADISSITEA [NFE2L1] | 4.48 ± 0.28 | 4.65 ± 0.17
77 | AAPAGSLSRKKRLELDDNLDTERP [TRIB3] | 5.25 ± 0.33 | 5.27 ± 0.14
78 | PFTVSPNTHVSQVFNLFRTMGLRH [CLCN6] | 2.39 ± 0.45 | 2.45 ± 0.38
79 | LQKKVEQLSRELSTLRNLFKQLPE [CEBPB] | 2.3 ± 0.32 | 2.43 ± 0.41
80 | EGMDRWIKKIEEHAPGVPKILVGN [RAB40A] | 3.41 ± 0.18 | 3.21 ± 0.31
81 | IHGTLHLERLAYLHARLRELLCEL [PRAME] | 2.04 ± 0.3 | 2.06 ± 0.31
82 | VGLIRNLALCPANHAPLREQGAIP [CTNNB1] | 3.21 ± 0.24 | 3.32 ± 0.32
83 | QKQQAPRMDTPPPEERLEKQNEKL [CCDC89] | 5.46 ± 0.44 | 5.62 ± 0.2
84 | DVLENAFAPLLDEQYDLATKRVRQ [GOLPH3] | 3.43 ± 0.26 | 3.52 ± 0.5
85 | RTVKLIRYVSNWDFFIVGCEVIFC [PKD2L1] | 2.79 ± 0.56 | 2.58 ± 0.47
86 | TEQSSASRLMRRHKRRRRKQKVSR [DVL3] | 5.13 ± 0.24 | 5.16 ± 0.22
87 | EHYWEVRYEPDSKAFGVGVAYRSL [FSD1] | 2.06 ± 0.29 | 2.25 ± 0.33
88 | GPPSRGGHMDDGGYSMNFNMSSSR [RBMX] | 4.25 ± 0.32 | 3.96 ± 0.34
89 | PGAHGRFMPQGAGGHTREARIQTL [RSAD1] | 3.63 ± 0.35 | 3.67 ± 0.29
90 | QPAFTGIKGKEGSALTEGAKEEGG [EPB41L3] | 5.5 ± 0.071 | 5.65 ± 0.23
